Patent publication US20170022553, “NUCLEIC ACID SEQUENCING METHODS AND SYSTEMS” (OMNIOME, INC., published 2017)

How the values were obtained:
[1] = biological target: T1, Bsu DNA polymerase I large fragment (Bacillus subtilis, UniProt O34996 O34996:297-880); experiment: BLI; correct dNTP, Ni(II), 200 mM KCl, 200 mM K glutamate, 30 C; details: tags: New England Biolabs M0330L; label: 5' biotin on template; primed template with 5' template overhang
Procedure: Primer-template duplex was diluted (100 nM) into Annealing Buffer. Wash buffer was 20 mM Tris, pH 8.0, 200 mM KCl, 200 mM potassium glutamate, 0.01% (v/v), Tween-20, 100 μg/mL bovine serum albumin, 1.0 mM dithiothreitol. Binding Buffer was Wash Buffer containing 2.0 mM Ni(II)SO₄. Reaction Buffer was 20 mM Tris, pH 8.0, 50 mM KCl, MgCl₂ (10 mM), 0.01% (v/v) Tween-20, 100 μg/mL bovine serum albumin, 1.0 mM dithiothreitol. EDTA Wash Buffer was Binding Buffer containing 1.0 mM EDTA. Buffer containing Primer-Template (PT), Binding buffer containing one dNTP and Reaction Buffer were loaded (200 μL/well) into a Greiner 96-well black microplate (Sigma-Aldrich, St. Louis, Mo.; catalog number M9685), and PCR-grade mineral oil (Sigma-Aldrich, St. Louis, Mo.; catalog no. M8662) was applied (75 μL/well). High-precision streptavidin biosensors (Pall ForteBio Corp., Menlo Park, Calif.; catalog number 18-5117) were re-hydrated in Annealing Buffer for approximately 10 minutes before use. The Octet QK biosensor system (Pall ForteBio Corp., Menlo Park, Calif.) was set for 30° C. operation and was programmed to coat the biosensors with Primer-Template and wash away unbound Primer-Template with Wash Buffer. […]

[2] = biological target: T1, Bsu DNA polymerase I large fragment; experiment: BLI; dGTP, 1 mM Ni(II), 30 C; lower amplitude, higher kobs than ALK-G1; details: tags: New England Biolabs M0330L; label: 5' biotin on template; primed template with 5' template overhang
Procedure: (§1) Primer-template duplex was diluted (100 nM) into Annealing Buffer. Wash buffer was 30 mM Tris, pH 8.0, 160 mM KCl, 160 mM potassium glutamate, 0.01% (v/v), Tween-20, 100 μg/mL bovine serum albumin, 1.0 mM dithiothreitol. Binding Buffer was Wash Buffer containing Bsu Pol I (68 Unit/mL) 100 μM dGTP+1.0 mM Ni(II)SO₄. Reaction Buffer was Wash Buffer containing Bsu (1 U/mL), MgCl₂ (80 μM), dGTP (28.1 μM), α-S-dGTP (162 μM). EDTA Wash Buffer was Wash Buffer without Ni(II)SO₄ but containing 1.0 mM EDTA. Buffer containing Primer-Template (PT), Binding Buffer and Reaction Buffer containing were loaded (200 μL/well) into a Greiner 96-well black microplate (Sigma-Aldrich, St. Louis, Mo.; catalog number M9685), and PCR-grade mineral oil (Sigma-Aldrich, St. Louis, Mo.; catalog no. M8662) was applied (75 μL/well). […]
(§2) In assays for binding to biosensor coated with ssDNA primer-template, Bsu Pol I enzyme bound strongly to the primer/template-coated biosensor in the presence of correct dGTP (FIGS. 18A and 18B). […] The association phase for formation of the ternary complex was analyzed for how the association kinetic parameters may be affected by the number of nucleotides for incorporation into the homopolymer of the primer/template.

[3] = biological target: Bst DNA polymerase, full length (Bacillus stearothermophilus, UniProt P52026 P52026:1-876); experiment: BLI; correct dNTP, 300 mM KCl, 30 C; minimal binding without dNTP; details: tags: New England Biolabs M0328L; label: 5' biotin on template; primed template with 5' template overhang
Sequence of Bst DNA polymerase, full length (P52026 whole entry, one chain of several): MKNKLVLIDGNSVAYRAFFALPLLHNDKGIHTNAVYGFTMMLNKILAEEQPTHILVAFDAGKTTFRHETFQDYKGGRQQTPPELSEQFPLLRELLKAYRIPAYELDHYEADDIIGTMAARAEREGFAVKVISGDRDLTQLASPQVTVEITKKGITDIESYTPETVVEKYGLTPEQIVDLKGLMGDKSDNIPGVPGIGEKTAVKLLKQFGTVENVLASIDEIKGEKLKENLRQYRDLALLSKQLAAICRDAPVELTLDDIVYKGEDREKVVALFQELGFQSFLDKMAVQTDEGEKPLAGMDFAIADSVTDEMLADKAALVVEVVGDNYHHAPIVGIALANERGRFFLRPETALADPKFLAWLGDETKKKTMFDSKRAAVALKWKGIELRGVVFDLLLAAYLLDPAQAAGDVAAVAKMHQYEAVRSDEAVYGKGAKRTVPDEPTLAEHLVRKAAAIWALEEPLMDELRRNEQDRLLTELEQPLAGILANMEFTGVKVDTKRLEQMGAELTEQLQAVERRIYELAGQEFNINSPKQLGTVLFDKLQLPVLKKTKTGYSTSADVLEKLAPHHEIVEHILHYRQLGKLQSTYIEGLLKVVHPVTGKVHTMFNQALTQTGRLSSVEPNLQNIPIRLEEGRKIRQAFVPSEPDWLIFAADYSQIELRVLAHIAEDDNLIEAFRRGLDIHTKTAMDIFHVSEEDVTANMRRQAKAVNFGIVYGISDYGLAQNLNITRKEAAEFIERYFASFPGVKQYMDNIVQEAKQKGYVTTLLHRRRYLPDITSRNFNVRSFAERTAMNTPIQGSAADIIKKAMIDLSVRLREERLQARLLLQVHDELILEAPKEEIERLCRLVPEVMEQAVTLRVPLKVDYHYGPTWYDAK
Procedure: Primer-template duplex was diluted (100 μM) into Annealing Buffer. Binding buffer was 50 mM Tris, pH 8.0, 300 mM KCl, 0.1% (v/v) Triton-X100, 100 μg/mL bovine serum albumin. Reaction Buffer was Binding Buffer containing 10 mM MgCl₂. Buffer containing Primer-Template (PT), Binding buffer containing one dNTP, and Reaction Buffer were loaded (200 μL/well) into a Greiner 96-well black microplate (Sigma-Aldrich, St. Louis, Mo.; catalog number M9685), and PCR-grade mineral oil (Sigma-Aldrich, St. Louis, Mo.; catalog no. M8662) was applied (75 μL/well). Streptavidin (SA) Biosensors (Pall ForteBio Corp., Menlo Park, Calif.; catalog number 18-5019) were re-hydrated in Annealing Buffer for approximately 10 minutes before use. The Octet QK biosensor system (Pall ForteBio Corp., Menlo Park, Calif.) was set for 30° C. operation and was programmed to coat the biosensors with Primer-Template and wash away unbound Primer-Template with Binding Buffer. Biosensors were transferred to Binding Buffer containing 136 Unit/mL Bst DNA Polymerase and 200 μM dNTP (dATP, dTTP, dGTP or dCTP) as indicated (association phase) followed by Reaction Buffer for dNTP incorporation. Biosensors were transferred to Reaction Buffer containing Bst DNA Polymerase (136 Unit/mL) without dNTP to promote nick translation via 5′-3′ exonuclease activity. […]

[4] = biological target: T1, Bsu DNA polymerase I large fragment; experiment: BLI; dGTP, 1 mM Ni(II), 30 C; highest amplitude; details: tags: New England Biolabs M0330L; label: 5' biotin on template; primed template with 5' template overhang
Procedure: as §1, §2

T1 sequence (O34996 297-880, one chain of several): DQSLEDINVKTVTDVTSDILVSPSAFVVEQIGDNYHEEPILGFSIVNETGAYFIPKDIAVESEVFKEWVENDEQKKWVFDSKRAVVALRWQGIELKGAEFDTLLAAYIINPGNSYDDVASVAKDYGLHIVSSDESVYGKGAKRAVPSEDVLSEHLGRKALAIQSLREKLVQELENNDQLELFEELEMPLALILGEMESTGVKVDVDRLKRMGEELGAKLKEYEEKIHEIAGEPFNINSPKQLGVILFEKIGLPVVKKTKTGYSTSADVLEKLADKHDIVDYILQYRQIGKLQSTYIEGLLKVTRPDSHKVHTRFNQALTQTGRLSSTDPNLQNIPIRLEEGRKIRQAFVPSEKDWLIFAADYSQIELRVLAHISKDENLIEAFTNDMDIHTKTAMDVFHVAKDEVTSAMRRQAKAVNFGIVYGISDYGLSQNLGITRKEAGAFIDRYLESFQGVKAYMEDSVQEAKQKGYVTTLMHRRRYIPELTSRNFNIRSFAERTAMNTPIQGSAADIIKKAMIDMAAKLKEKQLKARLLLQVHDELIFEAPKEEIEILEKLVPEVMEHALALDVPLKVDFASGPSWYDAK

B1: ALK C4493A/4496-4509AS primer-template (dsDNA)
DNA 1: GTGAGCCTGCAATCCCTGCCCCGGTTCATCCTGATGGAGCTCATGGCGGG
DNA 2: CCCGCCATGAGCTC
modifications: 3' inverted dT on template
binding result [1]: binds

B2: ALK-G4 primer-template (dsDNA)
DNA 1: GTGAGCCTGCAATCCCTGCCCCGGTTCATCCTGCTGGAGCTCATGGCGGG
DNA 2: CCCGCCATGAGCTCCAGCAGGATGAACC
modifications: 3' inverted dT on template
binding result [2]: binds

B3: ALK-G2 primer-template (dsDNA)
DNA 1: GTGAGCCTGCAATCCCTGCCCCGGTTCATCCTGCTGGAGCTCATGGCGGG
DNA 2: CCCGCCATGAGCTCCAGCA
modifications: 3' inverted dT on template
binding result [2]: binds

B4: ALK wild-type 4460-4509S/4496-4509AS primer-template (dsDNA)
DNA 1: GTGAGCCTGCAATCCCTGCCCCGGTTCATCCTGCTGGAGCTCATGGCGGG
DNA 2: CCCGCCATGAGCTC
modifications: 3' inverted dT on template
binding result [3]: binds

B5: ALK-G1 primer-template (dsDNA)
DNA 1: GTGAGCCTGCAATCCCTGCCCCGGTTCATCCTGCTGGAGCTCATGGCGGG
DNA 2: CCCGCCATGAGCTCCA
modifications: 3' inverted dT on template
binding result [4]: binds
